Source: PMC10035508

Biological target: PTBP1 (hsPTBP1) (Homo sapiens) (UniProt P26599)
Assay: EMSA
Details: EMSA in RBB: 10 mM sodium cacodylate pH 7.0, 100 mM NaCl, 1 mM MgCl2, 1 mM DTT, 0.1 ug/uL BSA, 0.1 ug/uL yeast tRNA, 0.4 U/uL RNasin, 1 U/uL heparin …

Chain of PTBP1 (hsPTBP1) (Homo sapiens) (P26599 whole entry): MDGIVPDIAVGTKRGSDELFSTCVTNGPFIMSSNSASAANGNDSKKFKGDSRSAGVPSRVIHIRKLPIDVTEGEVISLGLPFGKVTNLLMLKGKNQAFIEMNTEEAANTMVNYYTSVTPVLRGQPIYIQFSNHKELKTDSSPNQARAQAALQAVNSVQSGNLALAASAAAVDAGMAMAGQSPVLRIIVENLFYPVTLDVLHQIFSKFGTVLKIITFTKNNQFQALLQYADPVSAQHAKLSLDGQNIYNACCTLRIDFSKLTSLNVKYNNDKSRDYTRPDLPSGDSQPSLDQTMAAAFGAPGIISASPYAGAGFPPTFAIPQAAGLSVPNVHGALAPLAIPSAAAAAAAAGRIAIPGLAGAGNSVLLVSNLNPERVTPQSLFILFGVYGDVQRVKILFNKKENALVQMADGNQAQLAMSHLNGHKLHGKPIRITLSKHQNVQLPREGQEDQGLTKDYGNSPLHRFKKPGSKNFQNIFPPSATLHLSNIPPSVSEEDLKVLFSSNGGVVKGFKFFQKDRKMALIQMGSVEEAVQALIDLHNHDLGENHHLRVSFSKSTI

GGGUCUCCUUUCAGCCUGCUUCAGGAAUGAGCUUGUGGAGCCCCGGAGAGAAACUCCAAAACAAUCUGACGUCUUCUUUAGACAUUCCAAGCCCCCAAACCGAUCAGUGUAC [FRAGT7]
binding: no binding

GGGGUUCCUCCCCUCCAUCUUCCCACACCCAGUCACCAGCACUGUAUUUUCUGUCACCAAGACAAUGAUUUCUUGUUAUUGAGGCUGUUGCUUUUGUGGAUGUG [CPA1]
binding: no binding
